From paper PMC10484735

Key:
[1] = system: *II (gp32 N-terminal truncate) (bacteriophage T4); assay: optical tweezers (koff/kon); conditions: 15 pN tension; kon 0.0024 nM-1 s-1, koff 0.11 s-1; Optical tweezers buffer, pH and temperature not in the material (lower salt than AFM; 15 pN for Kd); AFM: 150 mM Na+, 100 uM spermidine, 37 C, 5 min
[2] = system: gp32 (WT) (bacteriophage T4); assay: optical tweezers (koff/kon); conditions: 15 pN tension; kon 0.003 nM-1 s-1; cooperative binding to bare ssDNA; Optical tweezers buffer, pH and temperature not in the material (lower salt than AFM; 15 pN for Kd); AFM: 150 mM Na+, 100 uM spermidine, 37 C, 5 min
[3] = biological target: Bacteriophage T4 gene 32 protein (gp32), full-length (bacteriophage T4) (UniProt P03695)
[4] = biological target: Bacteriophage T4 gene 32 protein (gp32), full-length (bacteriophage T4) (UniProt P03695); remark: listed apart in the source
[5] = biological target: Bacteriophage T4 gene 32 protein (gp32), full-length (bacteriophage T4) (UniProt P03695); remark: listed apart in the source

## 8.1 knt ssDNA (optical tweezers)
[1]
  Kd: 46 nM
[2]
  Kd: 1 nM

B1: Bacteriophage T4 gene 32 protein (gp32), full-length (natural protein)
chain: MFKRKSTAELAAQMAKLNGNKGFSSEDKGEWKLKLDNAGNGQAVIRFLPSKNDEQAPFAILVNHGFKKNGKWYIETCSSTHGDYDSCPVCQYISKNDLYNTDNKEYSLVKRKTSYWANILVVKDPAAPENEGKVFKYRFGKKIWDKINAMIAVDVEMGETPVDVTCPWEGANFVLKVKQVSGFSNYDESKFLNQSAIPNIDDESFQKELFEQMVDLSEMTSKDKFKSFEELNTKFGQVMGTAVMGGAAATAAKKADKVADDLDAFNVDDFNTKTEDDFMSSSSGSSSSADDTDLDDLLNDL
[3]
  maximal compaction of 8.1 knt ssDNA at 15 pN (optical tweezers, constant force), WT gp32 against the noncooperative truncate *II that lacks the N-terminal domain: 4 fold
[4]
  persistence length of the gp32–ssDNA complex (WLC fit of force-extension curves up to 5 pN, optical tweezers; plateau at gp32 ≥25 nM, up to 1 μM): 20 nm
[5]
  rate of ssDNA compaction after bimolecular binding (kc, two-step fit of k+1 against gp32 concentration at 15 pN, optical tweezers): 1.5 s^−1
